Experiments:
[1] = system: human fibroblast-derived HT-1080; assay: Fibronectin EIA in HT-1080 cells expressing TAK1-DN with or without TGF-β; type: cell-based; details: 1 ng/ml TGF-β, 24 hours; for increase of fibronectin in the culture supernatant by TGF-β addition: control HT/NEO about 6.1 fold; for increase of fibronectin in the extracellular matrix extract by TGF-β addition: control HT/NEO about 11.4 fold
Excerpt: Then, pTAK1DN or pCOS1 that contains no inserted genes as a control vector was linearized by digesting with a restriction enzyme PvuI. These linearized vectors were introduced by electroporation into human fibroblast-derived HT-1080 (ATCC CCL 121), a mouse kidney mesangial cell line SV40MES13 (ATCC CRL 1927), and a mink pulmonary epithelial cell line Mv1Lu (ATCC CCL 64), and cells into which the gene was introduced were selected using G418 (manufactured by GIBCO-BRL).
The human fibroblast-derived HT-1080 cells (HT/DN2 and HT/DN14) into which pTAK1DN had been introduced and the control cells (HT/NEO) into which pCOS1 containing no inserted genes had been introduced were incubated in a low-serum medium (Medium 199 containing 0.2% FBS; manufactured by GIBCO BRL) with or without 1 ng/ml TGF-β (manufactured by King Jozo) for 24 hours. The amount of fibronectin in the culture supernatant or the extracellular matrix extract prepared using 1 M urea solution (1 M urea, 1 mM DTT, 10 mM Tris-HCl, pH 7.4, 10 mM EDTA, Protease inhibitor cocktail (CompleteTM, manufactured by Boehringer-Mannheim)) was determined by the EIA method.
Thus, 100 μl of the culture supernatant or the extracellular matrix extract prepared using 1 M urea solution was added to a 96-well microtiter plate (manufactured by Nunc), and the plate was incubated overnight at 4° C. After washing, it was blocked using a 1% BSA solution (50 mM Tris-HCl, pH 8.0, 1 mM MgCl2, 150 mM NaCl, 0.05% Tween 20, 0.02% sodium azide), and then 10000 fold-diluted rabbit anti-human fibronectin antibody (manufactured by CALBIOCHEM) was added to the above 1% BSA solution, and was further incubated at room temperature for 2 hours.
After washing, alkaline phosphatase-labeled goat anti-rabbit Ig antibody (manufactured by TAGO) was added, and was further incubated at room temperature for one hour. Then the substrate solution (p-nitrophenyl phosphate; manufactured by Sigma) was added and absorbance at […] was measured. As a standard, human fibronectin (manufactured by Cappel) was used.

TAB1 = biological target: T1, TAB1 (Homo sapiens, UniProt Q15750); assay: Animal cell 2-hybrid system in CHO cells, luciferase activity; type: cell-based; details: 72 hours after gene introduction, similar to pM-TAK1 and pVP16-C68
T1 construct: expressed in transfected cells; host or cells: CHO cells
T1 sequence (Q15750 437-504): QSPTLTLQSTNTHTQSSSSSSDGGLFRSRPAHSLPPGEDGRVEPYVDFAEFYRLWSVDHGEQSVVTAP
Method: It was analyzed whether a polypeptide (TAK1-DN) comprising Glu at position 77 to Gln at position 303 of the TAK1 polypeptide as set forth in SEQ ID NO: 4 inhibits binding between the TAK1 polypeptide and the TAB1 polypeptide and whether it can inhibit the activation of the TAK1 polypeptide in animal cells by an animal cell 2-hybrid system (Dang et al., (1991) Mol. Cell. Biol. 11, 954-962) using the TAB1 polypeptide and the TAK1 polypeptide.
First, a gene encoding a full-length TAK1 and TAK1-DN and a gene encoding the GAL4 DNA-binding domain (GAL4-BD) were ligated to construct an expression vector. A gene encoding a full-length TAK1 was prepared by digesting yeast 2-hybrid expression plasmid pBTMHu11F (Shibuya H. et al., (1996) 272, 1179-1182) with restriction enzymes EcoRI and PstI, and was then linked to the EcoRI/Pst site of an expression vector pM (manufactured by CLONTECH) containing the GAL4-BD gene, which was termed an animal cell 2-hybrid expression plasmid pM-TAK1. […]
After further incubating for 72 hours, luciferase activity in each cell extract was determined using the Dual-LuciferaseTM Assay System (manufactured by Promega). […] The efficiency of gene introduction was corrected with the measured value of luciferase activity of Renilla by pRL-SV40.

B1: TAK1-DN: polypeptide of Glu at position 77 to Gln at position 303 of TAK1 (SEQ ID NO: 4), the TAB1 binding site; dominant negative inhibitor (protein)
chain: ELRQLSRVNHPNIVKLYGACLNPVCLVMEYAEGGSLYNVLHGAEPLPYYTAAHAMSWCLQCSQGVAYLHSMQPKALIHRDLKPPNLLLVAGGTVLKICDFGTACDIQTHMTNNKGSAAWMAPEVFEGSNYSEKCDVFSWGIILWEVITRRKPFDEIGGPAFRIMWAVHNGTRPPLIKNLPKPIESLMTRCWSKDPSQRPSMEEIVKIMTHLMRYFPGADEPLQYPCQ
increase of fibronectin in the culture supernatant by TGF-β addition ([1]; HT/DN2 cells): about 2.6 fold | increase of fibronectin in the extracellular matrix extract by TGF-β addition ([1]; HT/DN2 cells): about 3.5 fold | increase of fibronectin in the culture supernatant by TGF-β addition ([1]; HT/DN14 cells): ~3.0 fold | increase of fibronectin in the extracellular matrix extract by TGF-β addition ([1]; HT/DN14 cells): ~3.6 fold | binding to TAB1: luciferase activity for pM-TAK1DN and pVP16-C68 (TAB1): binds to TAB1
